# Laboratory results: the supplement of paper PMC9170038
# Test system: MS2 coat protein
# Experiment: apparent KD of MS2 coat protein; higher = weaker reporter binding
# Conditions: Eterna round: R107
# Procedure: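 RNA-MaP round R107: designed RNA switches with theophylline, tryptophan, arginine or FMN aptamers are transcribed on-chip within common flanks. They are titrated with SNAP-549-labelled MS2 coat protein in RNA-MaP buffer (100 mM Tris pH 7.5, 80 mM KCl, 4 mM MgCl2), without ligand or with the indicated ligand. Median apparent KD per design.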
# [1] = input ligand: theophylline 20 uM
# [2] = input ligand: theophylline 2 mM
# [3] = input ligand: tryptophan 2.4 mM
Sequence,apparent KD of MS2 coat protein (input ligand: arginine 13.2 mM) [nM],apparent KD of MS2 coat protein (input ligand: none) [nM],apparent KD of MS2 coat protein [1] [nM],apparent KD of MS2 coat protein [2] [nM],apparent KD of MS2 coat protein [3] [nM]
AGAGUCAGACAAAAGUCUGGCUCAGCCGAAGGAGCGUCCGAAAGGACAGGUAGGUCGCGGUUCCAUGAGGAUCACCCAUGGUCCU [ArgAS 28 #OpenEnded #AlternativeMS2],47.1,85,85.1,119,71.1
AGAGUCAGACAAAAGUCUGGCUCAGCCGAAGGAGCGUCCGAAAGGACAGGUAGGUCGCGGUUGCAUGAGGAUCACCCAUGUUCCU [ArgAS 30 #OpenEnded #AlternativeMS2],76.7,286,399,528,324
AGAGUCUAGUCGGCCGCCACUCAUGUCCUAAGGACAUGAGGAUCACCCAUGUACCAAAGGUACAUGAGGACCGGGACUGGACUCA [Omei Tryp B SS C v1],23.3,75.9,345,189,9.28
AGAGUUAGACAAAAGUCUAGCUCACCAGAAGGAGCGUCCGAAAGGACAGGUAGGUCGCUGGUGCAUGAGGAUCACCCAUGUUCCU [ArgAS 20 #OpenEnded #AlternativeMS2],26.9,115,211,313,150
AGAUGACACAGUGGAUAGCAAGAUGCCGAUACCAGCUAGGAAACUAGCCCUUGGCAGCGGUACAUGAGGAUCACCCAUGUAUCCU [EThA NP+V+V2 #10],12.4,,15.1,,13.4
AGAUUACAUGUUUUAAUACGGAAAACUGAUACCAGUGUAUCUAUUCACCCUUGGCAGCAGCAACAUGAGGAUCACCCAUGUAUUA [JR_SSTheophyA_Sub016],17.9,,21.5,,20
AGAUUUAUUUUGACCGGGCUCAUUCCUGAAGGAGCGCAGAACAAUGCAGGUAGGUCGCAGGACAUGAGGAUCACCCAUGUCAAGC [Isaes],14.2,20.7,18.3,19.9,18.8
AGCACUGUGACGGCCGCCACUACAUAAAUAGGGUGGUCAGGUUCAUUACAUGAGGAUCACCCAUGUAGGACCGGGUCUCAGUGCA [Omei Trp Exc B A v7],10,,11.9,11,
AGCAGAUCCCAGCGAAAGCUGGGAUCUGCACGAGGACCGGUACGGCCGCCACUCGAGGACAUGAGGAUCACCCAUGUACCGGUCA [Glorfindel],174,75.8,64.6,238,78.3
AGCCCUGUACUAGAUACCAGCUACAUGAGGAUCACCCAUGUGCGUCAAGACUGACUGUGUAGCCCUUGGCAGCUACUCGCAUGUA [Exclusion - Theophylline B (Freestyle 3)],13.7,,23.1,,14.9
AGCGAUAUGCAUGAUACCAGCUACAUGAGGAUCACCCAUGUACGUCAGUAAUGACUGUGUAGCCCUUGGCAGCAUAGAGCAUGUA [Exclusion - Theophylline B (Freestyle 13)],21.7,,35.4,,22.7
AGCGGAACGGAAGGGUCCCGAAAUUGUGAUACCAGCCUUGAAUCCGGCCCUUGGCAGCACAUGAGGAUCACCCAUGUACUGCGGU [Arimaed],11.4,,20.7,,13.1
AGCUCAGAGAGUGAUACCAGACUACAUGAGGAUCACCCAUGUUACUUUUAAAUAUCAUGAGUCCCUUGGCAGCACAAGAAGAGCA [JR_ExcTheophyB_Sub016],40.1,,117,,73.2
AGCUCGCAUCCUCUAGCGUCAAAGACGCGUCGAGGACCGGUACGGCCGCCACUCGACUUGAGGAUCACCCAAGUCUAAGCGAGCA [TrypAX 11 #SwitchBubble #AlternativeMS2 #MS2Late #CuTurnoff],54.8,92.6,91.1,215,488
AGGAAAACAUGAGCAAAGCUCAUGUGCGAAGGAGCGGCGGAAACGCCAGGUAGGUCGCGCACAUGAGCAUCAGCCAUGUGUAUCA [Omei Arginine B SS A v4],39.5,42.3,78.8,409,31.6
AGGACCAGGAACAUGGGUGAACUGGUCCAACGAGGACCGGUACGGCCGCCACUCGAAUAAACAUGAGGAUCACCCAUGUAAUAAU [T''-M-T'-T-MS2],83.3,327,296,442,210
AGGACGGUCGGAAGGAGCGGUACAUGAGGAUCACCCAUGUACCUCUGGGCAUCCGUAGUGUGCCAGGUAGGUCGCCGAUUGCGGG [Lareerra],15.7,12,19.5,16.5,11.8
AGUAAUCUAACAGAUACCAGACGGUAUAUAACAUGAGGAUCACCCAUGUCUUGGGUGUACGUCCCUUGGCAGCUGAAAAUGAUAA [JR_SSTheophyB_Sub001],157,,551,,756
